Data published in patent US10704056B2, “Constitutively active ABA receptor mutants” (The Regents of the University of California, priority 2011, dated 2020).
Substitutions are numbered along the chain they refer to. Numbers in names are those of the source.

B1: PYL9^CA4C: PYL9 mutant (A91W, Y160I, F161V) (protein)
chain: HHHHHHMMDGVEGGTAMYGGLETVQYVRTHHQHLCRENQCTSALVKHIKAPLHLVWSLVRRFDQPQKYKPFVSRCTVIGDPEIGSLREVNVKSGLPWTTSTERLELLDDEEHILGIKIIGGDHRLKNYSSILTVHPEIIEGRAGTMVIESFVVDVPQGNTKDETCIVVEALIRCNLKSLADVSERLASQDITQ
B2: PYL10: wild-type ABA receptor PYL10 (SEQ ID NO:11) (protein, listed as Arabidopsis thaliana)
chain: MNGDETKKVESEYIKKHHRHELVESQCSSTLVKHIKAPLHLVWSIVRRFDEPQKYKPFISRCVVQGKKLEVGSVREVDLKSGLPATKSTEVLEILDDNEHILGIRIVGGDHRLKNYSSTISLHSETIDGKTGTLAIESFVVDVPEGNTKEETCFFVEALIQCNLNSLADVTERLQAESMEKKI
modifications: thale cress PYR/PYL receptor, abscisic acid receptor PYL10, PYR1-like protein 10 (PYL10), ABI1-binding protein 8 (ABIP8), regulatory components of ABA receptor 4 (RCAR4), At4g27920, T13J8.30
B3: PYR1^CA4B: PYR1 quadruple mutant (V83F, M158I, F159V, K170W) (protein)
chain: HHHHHHMPSELTPEERSELKNSIAEFHTYQLDPGSCSSLHAQRIHAPPELVWSIVRRFDKPQTYKHFIKSCSVEQNFEMRVGCTRDVIFISGLPANTSTERLDILDDERRVTGFSIIGGEHRLTNYKSVTTVHRFEKENRIWTVVLESYVVDMPEGNSEDDTRIVADTVVKLNLQWLATVAEAMARNSGDGSGSQVT
B4: PYR1^CAc: PYR1 quadruple mutant (H60P, A89W, M158I, F159V) (protein)
chain: B3 chain with H66P, F89V, A95W, W176K
B5: PYL6: wild-type ABA receptor PYL6 (SEQ ID NO:7) (protein, listed as Arabidopsis thaliana)
chain: MPTSIQFQRSSTAAEAANATVRNYPHHHQKQVQKVSLTRGMADVPEHVELSHTHVVGPSQCFSVVVQDVEAPVSTVWSILSRFEHPQAYKHFVKSCHVVIGDGREVGSVREVRVVSGLPAAFSLERLEIMDDDRHVISFSVVGGDHRLMNYKSVTTVHESEEDSDGKKRTRVVESYVVDVPAGNDKEETCSFADTIVRCNLQSLAKLAENTSKFS
modifications: thale cress PYR/PYL receptor, abscisic acid receptor PYL6, PYR1-like protein 6 (PYL6), ABI1-binding protein 5 (ABIP5), regulatory components of ABA receptor 9 (RCAR9), Bet v I allergen family protein, At2g40330, T7M7.15
B6: K170W: PYR1 receptor mutant with amino acid substitution K170W (protein)
chain: MPSELTPEERSELKNSIAEFHTYQLDPGSCSSLHAQRIHAPPELVWSIVRRFDKPQTYKHFIKSCSVEQNFEMRVGCTRDVIVISGLPANTSTERLDILDDERRVTGFSIIGGEHRLTNYKSVTTVHRFEKENRIWTVVLESYVVDMPEGNSEDDTRMFADTVVKLNLQWLATVAEAMARNSGDGSGSQVT
modifications: synthetic mutated PYR/PYL receptor polypeptide PYR1 K170W
B7: M158I: PYR1 receptor mutant with amino acid substitution M158I (protein)
chain: B6 chain with M158I, W170K
modifications: synthetic mutated PYR/PYL receptor polypeptide PYR1 M158I
B8: F159V: PYR1 receptor mutant with amino acid substitution F159V (protein)
chain: B6 chain with F159V, W170K
modifications: synthetic mutated PYR/PYL receptor polypeptide PYR1 F159V
B9: T162F: PYR1 receptor mutant with amino acid substitution T162F (protein)
chain: B6 chain with T162F, W170K
modifications: synthetic mutated PYR/PYL receptor polypeptide PYR1 T162F
B10: V83F: PYR1 receptor mutant with amino acid substitution V83F (protein)
chain: B6 chain with V83F, W170K
modifications: synthetic mutated PYR/PYL receptor polypeptide PYR1 V83F
B11: A89W: PYR1 receptor mutant with amino acid substitution A89W (protein)
chain: B6 chain with A89W, W170K
modifications: synthetic mutated PYR/PYL receptor polypeptide PYR1 A89W
B12: H60P: PYR1 (SEQ ID NO:1) receptor mutant with amino acid substitution H60P (protein, listed as Arabidopsis thaliana)
chain: B6 chain with H60P, W170K
modifications: thale cress PYR/PYL receptor, Pyrabactin resistance 1, abscisic acid receptor PYR1 (PYR1), ABI1-binding protein 6 (ABIP6), regulatory components of ABA receptor 11 (RCAR11), At4g17870, T6K21.50
B13: I84Q: PYR1 receptor mutant with amino acid substitution I84Q (protein)
chain: B6 chain with I84Q, W170K
modifications: synthetic mutated PYR/PYL receptor polypeptide PYR1 I84Q
B14: PYL2^CA4C: PYL2 mutant (H65P, A93W, M1641, F165V) (protein)
chain: HHHHHHMSSSPAVKGLTDEEQKTLEPVIKTYHQFEPDPTTCTSLITQRIHAPASVVWPLIRRFDNPERYKPFVKRCRLISGDGDVGSVREVTVISGLPWSTSTERLEFVDDDHRVLSFRVVGGEHRLKNYKSVTSVNEFLNQDSGKVYTVVLESYTVDIPEGNTEEDTKIVVDTVVKLNLQKLGVAATSAPMHDDE

Tested on: HAB1
Assay: In vitro PP2C phosphatase (pNPP) receptor activation assay with HAB1
Type: biochemical, Arabidopsis
Conditions: 600 nM GST-HAB1, 0-4800 nM receptor, no ABA
Method: Recombinant receptor proteins were produced as follows: Coding sequences were cloned into pET28 yielding 6×HIS (SEQ ID NO:173) fusions proteins and transformed into E. coli expression strain BL21. […]. Cells were stored at −80° C. before purification. After thawing, cells were sonicated on ice five times for 30 sec with 30 sec resting intervals. A cleared lysate was obtained after centrifugation at 12,000×g for 10 min and applied to 1 ml of Ni-NTA column (Qiagen) and washed with 20 column volumes of Buffer A containing 30 mM imidazole. Bound protein was eluted with 10 ml of Buffer A with 250 mM imidazole. The elutate was dialyzed against TBS. The purified recombinant proteins were then used together with recombinant phosphatases in receptor assays. In these assays, receptor activity is indicated by inhibition of phosphatase activity, as inferred from initial reaction velocities for GST-HAB1 mediated hydrolysis of the synthetic phosphatase substrate pNPP. Reactions contained 600 nM GST-HAB1 and either 0, 600, 1200, 2400 or 4800 nM 6×His-PYR1 or variants in a reaction buffer consisting of 33 mM Tris-OAc, pH 7.9, 66 mM KOAc, 0.1% BSA, 25 mM Mn(OAc)2, 50 mM pNPP. To infer the level of receptor activation with respect to fully activated wild type receptor, control reactions were also conducted using saturating levels of (+)-ABA (10 μM), and 600 nM wild type PYR1 and HAB1. Immediately after mixing proteins and substrates, reactions were monitored for hydrolysis of pNPP at A405 at ˜10 second intervals over 20 minutes using a Wallac plate reader. Reaction progressions were plotted, initial velocities calculated and converted to specific activities using a standard curve for 4-nitrophenol made in the same buffer system volumes/plate reader used for enzymatic reaction measurements. The values shown are expressed as %-control phosphatase activity levels as measured in the absence of receptor protein. The average specific activity level of GST-HAB1 utilized in our experiments was 4000 μmol/min/mg, when assayed on the phosphatase substrate pNPP in the absence of PYR1 or other receptors, as described using the methods above.
Full length ABI1 and ABI2 were cloned into a modified pSUMO vector (LifeSensors Inc, USA) vector yielding 6×His-SUMO fusion proteins; GST-HAB1 was expressed and purified as previously described (Park et al., 2009). Mutant receptors were cloned into pET28 yielding 6×His-fusion proteins. […]. The cultures were pre-incubated 2 hours at 30° C. and, for PP2C expression, media was supplemented with 4 mM MnCl2 one hour after inoculation. After pre-incubation, IPTG was added (1 mM) and cells were induced at 15° C. for 16 hours, after which they were collected by centrifugation, resuspended in 5 ml Buffer A (50 mM NaH2PO4, 300 mM NaCl) +10 mM imidazole, pH 8.0 and stored at −80° C. For purification, cells were thawed, sonicated on ice (60 seconds) and a cleared lysate was then applied a 1 ml-bed volume column of Ni-NTA (Qiagen, USA), washed with 20 column volumes of Buffer A+30 mM imidazole and bound protein eluted with 1 ml of Buffer A+250 mM imidazole. For receptors, the elutate was dialyzed against TBS and for PP2Cs, fusion proteins were desalted by passage over a Sephadex G50 column.
The purified receptors and phosphatases were then used in receptor assays where receptor activation is indicated by inhibition of phosphatase activity, as inferred from initial reaction velocities for PP2C-mediated hydrolysis of the synthetic phosphatase substrate pNPP in reactions containing 600 nM PP2C and either 0, 600, 1200, 2400 or 4800 nM receptor. The receptor assay buffer consisted of 33 mM Tris-OAc, pH 7.9, 66 mM KOAc, 0.1% BSA, 25 mM Mn(OAc)2, 0.1%13-ME and 50 mM pNPP. Immediately after mixing proteins and substrates, reactions were monitored for hydrolysis of pNPP at A405 at ˜2 minutes intervals using a Wallac plate reader. […]

Molecule	basal receptor activity (inhibition of HAB1 phosphatase activity in the absence of ABA)
B1	highly activated in the absence of ABA
B2	are not full CA receptors
B3	dramatically increased basal PYR1 activity
B4	dramatically increased basal PYR1 activity
B5	are not full CA receptors
B6	increase basal activity of receptors
B7	increase basal activity of receptors
B8	increase basal activity of receptors
B9	increase basal activity of receptors
B10	increase basal activity of receptors
B11	increase basal activity of receptors
B12	increase basal activity of receptors
B13	increase basal activity of receptors
B14	highly activated in the absence of ABA
